Assay results from article PMC9130890.

Target: autologous SHIV_(1157ipd3N4) gp120 monomer (SHIV_(1157ipd3N4))

B1: unmutated common ancestor (UCA) of the J038 lineage (antibody, V domains shown)
VH: QLQLQESGPGLVKPSETLSLTCAVSGGSISSNYWSWIRQPPGKGLEWIGRISGSGGSTDYNPSLKSRVTISTDTSKNQFSLKLSSVTAADTAVYYCAREVAEDDYGYYQPYFDYWGQGVLVTVSS
VL: DIQMTQSPSSLSASVGDRVTITCRASQGISSYLAWYQQKPGKAPKLLIYAASSLQSGVPSRFSGSGSGTDFTLTISSLQPEDFATYYCQQYNSLPLTFGGGTKVEIK
With B1 the neutralisation of the autologous tier 2 1157ipd3N4 pseudovirus on TZM-bl cells, IC50 was 4.97 µg mL^−1.
